For experiment [1], the target named is Wildtype human PAR2 expressed on cells (human) (UniProt P55085). In words: flow cytometry on HEK293F-humanPAR2 (3.0E+06 cells/mL, w/ NaN3), overnight at about 5 C, S/BG.
Experiment [2] has as its target Cynomolgus PAR2 on BacMam-infected HEK293 cells (cynomolgus). As to the kind of experiment: flow cytometry on HEK293F-cynoPAR2 (3.0E+06 cells/mL, w/ NaN3), overnight at about 5 C, S/BG [continued].
Experiment [3] concerns the target Wildtype human PAR2 expressed on cells (human) (UniProt P55085). In words: cell-based or functional assay.

Sequence of Wildtype human PAR2 expressed on cells (human) (P55085 37-397 limits assumed): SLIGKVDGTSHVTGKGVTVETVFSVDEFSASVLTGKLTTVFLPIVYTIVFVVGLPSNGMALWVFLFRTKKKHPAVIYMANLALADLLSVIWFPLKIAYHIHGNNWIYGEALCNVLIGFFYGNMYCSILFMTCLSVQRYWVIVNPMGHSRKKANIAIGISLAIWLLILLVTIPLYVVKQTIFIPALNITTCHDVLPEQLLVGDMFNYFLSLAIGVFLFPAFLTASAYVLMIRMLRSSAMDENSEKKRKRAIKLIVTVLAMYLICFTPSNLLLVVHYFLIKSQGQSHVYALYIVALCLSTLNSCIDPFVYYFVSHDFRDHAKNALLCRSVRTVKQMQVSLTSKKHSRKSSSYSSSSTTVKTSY

B1: Benchmark 3 IgG (antibody, from another filing, V domains shown)
VH: QVQLVESGGGVVQPGRSLRLSCVASGFTFSRYGIHWVRQAPGKGLEWVIVISYDGINKYYADSVKGRFTISRDNSKNTVYLQMNSLRAEDTAVYYCAKGDFWSGYFDYWGQGTLVTVSS
VL: DIVMTQTPLSSPVTLGQPASISCRSSQSLVHSDGNTYLSWLHQRPGQPPRLLIYKISNRFSGVPDRFSGSGAGTDFTLQISRVEAEDVGIYYCMQATQFPTFGGGTKVEIK
Broadly, the EC50 (read off the curve) is the concentration giving half of the maximal effect. Consider B1, for which the EC50 (read off the curve) was 1 nM in experiment [1] and 2 nM in experiment [2].

B2: Benchmark 2 (antibody, from another filing, V domains shown)
VH: EVQLLESGGGLVQPGGSLRLSCAASGFTFSSYAMNWVRQAPGKGLEWVSTISYHGSHISYHDSVHHRFTISRDNSKNTLYLQMNSLRAEDTAVYYCARIHHDPMDVWGQGTLVTVSS
VL: SIELTQPPSVSVSPGQTASITCSGDNLGKKYVQWYQQKPGQSPVLVIYDDSNRPSGIPERFSGSNSGNTATLTISGTQAMDEADYYCQTWDGNPTTGETNVFGGGTKLTVL
In experiment [3], B2 gave a % Max Inhibition, PAR1 peptide SFLLR-NH2 challenge, IP-One of 3%.

B3: Benchmark 4 IgG (antibody, from another filing, V domains shown)
VH: EVQLVQSGAEVKKPGESLKISCKGSGYNFISHWIGWVRQMPGKGLEWMGMIYPGDSDTRYSPSFQGQVTISADKSINTAYLQWRSLKASDTAMYFCARHGGITGTTFYYDFGMDVWGQGTTVTVSS
VL: SYELTQPPSVSVSPGQTARITCSGDALPKQYASWYQQKPGQAPLLVIYRDSERPSGLPERFSGSSSGTTVTLTISGVQAEDEADYYCQSADSGGSYVFGTGTKVTVL
B3: the EC50 (read off the curve) in experiment [1] and in experiment [2] was 1 nM each time.

These data come from patent US20250313621A1.
